# Assay results taken from the supplement of paper PMC9112550, “Optimization of the antimicrobial peptide Bac7 by deep mutational scanning” (BMC Biology, 2022).
# Tested on: Escherichia coli TOP10
# Assay: shrunken log2 fold change of peptide-encoding DNA abundance (4.5 h post-induction vs induction); higher = less antimicrobial activity (less host growth inhibition)
# Conditions: time post-induction: 4.5 h; library: site-saturation at positions 5, 18, 19, 20
# 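Further: peptides expressed intracellularly from a pBAD plasmid library in pooled LB shake-flask culture, induced with 0.3% L-arabinose, DNA abundance read by NGS, three biological replicates, DESeq2 with apeglm shrinkage.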
row,Sequence,shrunken log2 fold change
1,RRIRKRPPRLPRPRPRPRHYPRP,-0.0867
2,RRIRCRPPRLPRPRPRPLRLPRP,0.0282
3,RRIRTRPPRLPRPRPRPACMPRP,0.0444
4,RRIRKRPPRLPRPRPRPAEGPRP,0.305
5,RRIRVRPPRLPRPRPRPHIRPRP,-0.503
6,RRIRSRPPRLPRPRPRPVIMPRP,-0.36
7,RRIRTRPPRLPRPRPRPIRLPRP,0.0213
8,RRIRCRPPRLPRPRPRPDKWPRP,0.184
9,RRIRFRPPRLPRPRPRPIEGPRP,0.0922
10,RRIRHRPPRLPRPRPRPATVPRP,0.00308
11,RRIRWRPPRLPRPRPRPIGTPRP,0.175
12,RRIRGRPPRLPRPRPRPCQCPRP,0.268
13,RRIRRRPPRLPRPRPRPYYIPRP,-0.584
14,RRIRCRPPRLPRPRPRPAVFPRP,-0.127
15,RRIRMRPPRLPRPRPRPFCPPRP,0.0248
16,RRIRTRPPRLPRPRPRPWNKPRP,-0.594
17,RRIRRRPPRLPRPRPRPVRYPRP,0.181
18,RRIRDRPPRLPRPRPRPCLGPRP,-0.015
19,RRIRNRPPRLPRPRPRPQPNPRP,-0.047
20,RRIRIRPPRLPRPRPRPAILPRP,0.089
21,RRIRFRPPRLPRPRPRPMYFPRP,-0.331
22,RRIRGRPPRLPRPRPRPDEDPRP,0.168

row,Sequence,shrunken log2 fold change
1,RRIRNRPPRLPRPRPRPWNGPRP,-0.368
2,RRIRSRPPRLPRPRPRPWNMPRP,-0.077
3,RRIRQRPPRLPRPRPRPRICPRP,-0.083
4,RRIRTRPPRLPRPRPRPQWDPRP,-0.0974
5,RRIRCRPPRLPRPRPRPYQPPRP,-0.152
6,RRIRERPPRLPRPRPRPPLAPRP,0.433
7,RRIRCRPPRLPRPRPRPLPVPRP,-0.105
8,RRIRQRPPRLPRPRPRPQAPPRP,0.233
9,RRIRVRPPRLPRPRPRPMDDPRP,-0.312
10,RRIRIRPPRLPRPRPRPRECPRP,0.146
11,RRIRMRPPRLPRPRPRPSDGPRP,-0.205
12,RRIRSRPPRLPRPRPRPYSCPRP,-0.386
13,RRIRNRPPRLPRPRPRPCCRPRP,-0.0438
14,RRIRYRPPRLPRPRPRPHFKPRP,-0.346
15,RRIRNRPPRLPRPRPRPCEPPRP,-0.183
16,RRIRRRPPRLPRPRPRPAGEPRP,0.75
17,RRIRLRPPRLPRPRPRPPGFPRP,0.278
18,RRIRPRPPRLPRPRPRPAMGPRP,0.332
19,RRIRQRPPRLPRPRPRPDCTPRP,0.0901
20,RRIRRRPPRLPRPRPRPMMCPRP,0.102
21,RRIRWRPPRLPRPRPRPKKCPRP,0.18
22,RRIRFRPPRLPRPRPRPDFPPRP,-0.0311

row,Sequence,shrunken log2 fold change
1,RRIRCRPPRLPRPRPRPYPPPRP,-0.631
2,RRIRKRPPRLPRPRPRPTHQPRP,0.612
3,RRIRSRPPRLPRPRPRPYCDPRP,-0.225
4,RRIRMRPPRLPRPRPRPPHNPRP,0.767
5,RRIRLRPPRLPRPRPRPCIKPRP,-0.752
6,RRIRTRPPRLPRPRPRPAVEPRP,-0.011
7,RRIRGRPPRLPRPRPRPIRTPRP,0.21
8,RRIRMRPPRLPRPRPRPIKFPRP,-0.5
9,RRIRNRPPRLPRPRPRPAAKPRP,-0.0209
10,RRIRPRPPRLPRPRPRPIFRPRP,-0.0135
11,RRIRLRPPRLPRPRPRPPQIPRP,0.0736
12,RRIRIRPPRLPRPRPRPDNAPRP,-0.717
13,RRIRWRPPRLPRPRPRPLKHPRP,-0.623
14,RRIRDRPPRLPRPRPRPTCPPRP,-0.119
15,RRIRDRPPRLPRPRPRPYKQPRP,-0.0404
16,RRIRDRPPRLPRPRPRPIHKPRP,-0.275
17,RRIRGRPPRLPRPRPRPVLPPRP,0.383
18,RRIRPRPPRLPRPRPRPSWWPRP,0.394
19,RRIRNRPPRLPRPRPRPSYHPRP,-0.273
20,RRIRTRPPRLPRPRPRPRASPRP,0.367
21,RRIRNRPPRLPRPRPRPCQLPRP,-0.0247
22,RRIRKRPPRLPRPRPRPARNPRP,0.00491

row,Sequence,shrunken log2 fold change
1,RRIRDRPPRLPRPRPRPMNDPRP,-0.126
2,RRIRGRPPRLPRPRPRPYMDPRP,-0.0735
3,RRIRWRPPRLPRPRPRPGNRPRP,-0.00977
4,RRIRDRPPRLPRPRPRPRYDPRP,-0.284
5,RRIRFRPPRLPRPRPRPGQTPRP,0.0249
6,RRIRNRPPRLPRPRPRPQTVPRP,-0.0578
7,RRIRDRPPRLPRPRPRPYVSPRP,-0.032
8,RRIRPRPPRLPRPRPRPPYLPRP,-0.376
9,RRIRSRPPRLPRPRPRPAPAPRP,0.741
10,RRIRCRPPRLPRPRPRPHWNPRP,-0.551
11,RRIRFRPPRLPRPRPRPLKMPRP,-0.428
12,RRIRKRPPRLPRPRPRPFNFPRP,-0.296
13,RRIRVRPPRLPRPRPRPIMHPRP,-0.156
14,RRIRARPPRLPRPRPRPSSRPRP,-0.167
15,RRIRARPPRLPRPRPRPNVEPRP,0.327
16,RRIRRRPPRLPRPRPRPHGGPRP,0.0449
17,RRIRVRPPRLPRPRPRPGCPPRP,0.181
18,RRIRLRPPRLPRPRPRPSDQPRP,-0.18
19,RRIRKRPPRLPRPRPRPEQWPRP,-0.0362
